Molecular target: Slit D2 (the Robo-binding domain of Slit) (Drosophila)
Experiment: SPR

Kd [nM] | Substance
235 | Robo1 Ig1-5 fragment (Ig domain-containing portion of the Robo ectodomain) (domain or fragment)
1100 | Robo2 Ig1-5 fragment (Ig domain-containing portion of the Robo2 ectodomain) (domain or fragment)

From publication PMC4078746
